The results in this text go back to patent US20230272055A1 (Incyte, published 2023).

In assay [1] the target is T1, Recombinant MBP-mutCALR Type 1 fusion protein (human).
T1 construct: custom made at Cepter; also called recombinant mutCALR protein
Description: SPR, IgG captured, 1:1 fit, Exp. 1. The method, then:
Experiment 1: Recombinant MBP-mutCALR Type 1 fusion protein was custom made at Cepter (cepterbiopartners.com). Data for the interaction of antibodies with recombinant MBP-mutCALR Type 1 fusion protein were collected at 25° C. on a Biacore 8K instrument (Cytiva, Marlborough, Mass.), and all reagents were obtained from Cytiva unless otherwise specified. The experiments were conducted using Tris-buffered saline (pH 7.2), 0.005% Surfactant P20, 1 mM CaCl₂) as running buffer. To prepare the capture surfaces, anti-human IgG (Fc) antibodies (Product #29234600) was amine-coupled onto a CM4 chip (Product #BR100534) under standard conditions using an Amine Coupling Kit (Product #BR100050). […] The kinetics parameters were obtained by applying 1:1 binding model to fit the data from multiple-cycle injection experiments using Biacore Insight Evaluation software.
A general note: SPR reads the build-up and loss of mass on a sensor chip optically.

Assay [2] concerns the target T1, Recombinant MBP-mutCALR Type 1 fusion …. Put plainly: SPR, IgG captured, 1:1 fit, Exp. 2. Put shortly:
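Antibodies captured via amine-coupled anti-human IgG (Fc) on a CM4 chip; recombinant MBP-mutCALR Type 1 fusion protein as analyte. Run at 25 °C in Tris-buffered saline pH 7.2, 0.005% P20, 1 mM CaCl₂. Multiple-cycle kinetics fitted to a 1:1 binding model.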

Usually Kd stands for the equilibrium constant for the complex coming apart. In general, koff refers to the rate constant with which the complex falls apart. The term kon denotes a measure of how fast the partners come together.

B1: anti-mutCALR antibody clone 11 (antibody, human IgG1, lambda, V domains shown)
VH: EVRLVQSGAEVKKPGASVKVSCKVSGYTLTELSMQWVRQAPGKGLEWMGGFDPDDGETMYAEKFQGRLTVTEDTSTDTVYMELRSLTSEDTALYFCATSPGYDFFDYWGQGTLVTVSS
VL: QSALTQPRSVSGSPGQSVTISCTGTSSDVGGYNYVSWYQQHPGKAPKLMIYDVSKRPSGVPDRFSGSNSGNTATLTINRVEAGDEADYYCQVWDSSNDLLIFGGGTKLTVLG
notes: human IgG1
Turning to B1, in assay [1], the Kd came out at 10.2 nM, the koff amounted to 0.00524 s⁻¹ and the kon came to 514000 M⁻¹ s⁻¹.

B2: anti-mutCALR antibody clone 45 (antibody, human IgG1, lambda, V domains shown)
VH: EVQLVQSGAEVKKPGSSVKVSCKASGGTFSSYAISWVRQAPGQGLEWMGGIIPIFGTANYAQKFQGRVTITADESTSTAYMELSSLRSEDTAVYYCASSPLRGSGWYWHYYYGMDVWGQGTTVTVSS
VL: SYVLTQPLSVSVAPGQTARITCGGNNIGRKSVHWYQQKPGQAPVLVIYRDSNRPSGIPERFSGSNSGNTATLTISRAQAGDEADYYCQVWDSSTVVFGGGTKLTVLG
notes: human IgG1
On to B2, for which, in assay [1], the Kd was 5.13 nM, the off-rate constant (koff) worked out at 0.0011 s⁻¹ and the kon was 214000 M⁻¹ s⁻¹.

B3: anti-mutCALR antibody clone 49 (antibody, human IgG1, lambda, V domains shown)
VH: EVQLVQSGAEVKKPGSSVKVSCKASGGTFSSYAISWVRQAPGQGLEWMGGIIPIFGTANYAQKFQGRVTITADESTSTAYMELSSLRSEDTAVYYCASSPLRGSGWYWHYYYGMDVWGQGTTVTVSS
VL: SYELTQPPSVSVAPGKTARITCGGNNIRAKHVHWYQQKPGQSPVLVIYQDSKRPSGIPERFSGSNSGSTATLTISRVEAGDEADYYCQVWDSSTVVFGGGTKLTVLG
notes: human IgG1
As for B3, in assay [1], the Kd is 3.61 nM, the koff amounted to 0.000669 s⁻¹ and the kon is 185000 M⁻¹ s⁻¹.

B4: anti-mutCALR antibody clone 47 (antibody, human IgG1, lambda, V domains shown)
VH: EVQLVQSGAEVKKPGSSVKVSCKASGGTFSSYAISWVRQAPGQGLEWMGGIIPIFGTANYAQKFQGRVTITADESTSTAYMELSSLRSEDTAVYYCASSPLRGSGWYWHYYYGMDVWGQGTTVTVSS
VL: SYELTQPPSVSVAPGKTARITCGGNKIGTKSVHWYQQKPGQAPVLVIYRDSNRPSGIPERFSGSNSGNTATLTISRAQAGDEADYYCQVWDSSTVVFGGGTKLTVLG
notes: human IgG1
Regarding B4, in assay [1], the Kd was 3.62 nM, the dissociation rate constant (koff) amounted to 0.000772 s⁻¹ and the on-rate constant (kon) came to 213000 M⁻¹ s⁻¹.

B5: anti-mutCALR antibody clone 51 (antibody, human IgG1, lambda, V domains shown)
VH: EVQLVQSGAEVKKPGSSVKVSCKASGGTFSSYAISWVRQAPGQGLEWMGGIIPIFGTANYAQKFQGRVTITADESTSTAYMELSSLRSEDTAVYYCASSPLRGSGWYWHYYYGMDVWGQGTTVTVSS
VL: SYELTQPPSVSVAPGKTARITCGGNKIGTKSVHWYQQKPGQAPVLVIYQDSKRPSGIPERFSGSNSGNTATLTISGTQAMDEADYYCQAWGSSTVVFGGGTKLTVLG
notes: human IgG1
Consider B5, for which, in assay [1], the Kd was 4.64 nM, the koff is 0.00109 s⁻¹ and the kon came out at 235000 M⁻¹ s⁻¹. Moreover, in assay [2], the Kd was found to be 0.823 nM, the koff was determined as 0.000524 s⁻¹ and the kon was 636000 M⁻¹ s⁻¹.

B6: anti-mutCALR antibody clone 15 (antibody, human IgG1, lambda)
heavy: not shown
light: SYELTQPPSVSVAPGKTARITCGGDNIGSKSVHWYQQKPGQAPVLVVYDDSDRPSGIPERFSGSNSGNTATLTINRVEAGDEADYYCQVWDSSNDLLIFGGGTKLTVLGQPKAAPSVTLFPPSSEELQANKATLVCLISDFYPGAVTVAWKADSSPVKAGVETTTPSKQSNNKYAASSYLSLTPEQWKSHRSYSCQVTHEGSTVEKTVAPTECS
notes: human IgG1
Regarding B6, in assay [1], the Kd amounted to 6.03 nM, the koff turned out to be 0.215 s⁻¹ and the kon worked out at 3.57e+07 M⁻¹ s⁻¹. For the same molecule, in assay [2], the dissociation constant Kd worked out at 1.02 nM, the koff amounted to 0.00249 s⁻¹ and the association rate constant (kon) is 2.44e+06 M⁻¹ s⁻¹.

B7: anti-mutCALR antibody clone 17 (antibody, human IgG1, lambda)
heavy: not shown
light: SYVLTQPPSVSVAPGQTARITCGGSDIGDEIVHWYQQKPGQAPVLVVYDDSDRPSGIPERFSGSNSGNTATLTISRAQAGDEADYYCQVWDSSSDHLIFGGGTKLTVLGQPKAAPSVTLFPPSSEELQANKATLVCLISDFYPGAVTVAWKADSSPVKAGVETTTPSKQSNNKYAASSYLSLTPEQWKSHRSYSCQVTHEGSTVEKTVAPTECS
notes: human IgG1
Consider B7, for which, in assay [1], the Kd worked out at 2.22 nM, the koff was found to be 0.00347 s⁻¹ and the kon was found to be 1.56e+06 M⁻¹ s⁻¹. Further, in assay [2], the Kd is 0.249 nM, the off-rate (koff) is 0.00127 s⁻¹ and the kon was found to be 5.12e+06 M⁻¹ s⁻¹.

B8: anti-mutCALR antibody clone 52 (antibody, human IgG1, kappa, V domains shown)
VH: EVQLVQSGAEVKKPGASVKVSCKVSGYTLTELSMHWVRQAPGKGLEWMGLVDPEDGETIYAEKFQGRVTITADTSTDTAYMELSSPRSEDTAVYYCATTIGDDYFDYWGQGTLVTVSS
VL: not shown
notes: human IgG1
Take B8: the Kd in assay [1] amounted to 1.76 nM.

B9: anti-mutCALR antibody clone 40 (antibody, human IgG1, lambda, V domains shown)
VH: EVQLVQSGAEVKKPGASVKVSCKVSGYTLTESSMHWVRQAPGKGLEWMGLVDPEDGETIYAQKFQGRVTMTEDTSTDTAYMELSSLRSEDTAVYYCAREEWSGDGDDAFDIWGQGTMVTVSS
VL: QSVLTQPPSVSAAPGQKVTISCSGSSSNIGSYSVSWYQQLPGTAPKLLIYDNNKRPSGIPDRFSGSNSGTSATLGITGLQTGDEADYYCGTWDSSLSAWVFGGGTKLTVLG
notes: human IgG1
On to B9, for which, in assay [1], the Kd amounted to 1.04 nM, the koff worked out at 0.00538 s⁻¹ and the kon was found to be 5.17e+06 M⁻¹ s⁻¹. Besides, in assay [2], the Kd came to 0.352 nM, the dissociation rate constant (koff) turned out to be 0.00121 s⁻¹ and the kon turned out to be 3.44e+06 M⁻¹ s⁻¹.

B10: anti-mutCALR antibody clone 38 (antibody, human IgG1, kappa, V domains shown)
VH: EVQPVQSGAEVKKPGSSVKVSCKASGGTFSSYAISWVRQAPGQGLEWMGLVDPEDGETIYAEKFRGRVTITADTSTDTAYMELSSLRSEDTAVYYCATEESYGPWGQGTLVTVSS
VL: DIQLTQSPSSLSASVGDRVTITCQASQDISNYLNWYQQKPGKAPKLLIYDASNLETGVPSRFSGSGSGTEFTLTISSLQPEDFATYYCQQLNSYPLTFGGGTKLEIKR
notes: human IgG1
B10: in assay [1], the Kd was 2.1 nM, the dissociation rate constant (koff) came out at 0.00268 s⁻¹ and the kon is 1.28e+06 M⁻¹ s⁻¹.

B11: anti-mutCALR antibody clone 39 (antibody, human IgG1, kappa, V domains shown)
VH: EVQLVQSGAEVKKPGSSVKVSCKASGGTFSSYAISWVRQAPGQGLEWMGLVDPEDGETIYAEKFQGRVTITADTSTDTAYMELSSLRSEDTAVYYCATEESYGPWGQGTLVTVSS
VL: DIQLTQSPSSLSASVGDRVTITCQASQDISNYLDWYQQKPGKAPKLLIYDASNLETGVPSRFSGSGSGTEFTLTISSLQPEDFATYYCQQLNSYPLTFGGGTKLEIKR
notes: human IgG1
On to B11, for which, in assay [1], the Kd turned out to be 5.59 nM, the koff was 0.0018 s⁻¹ and the kon was 322000 M⁻¹ s⁻¹.

B12: anti-mutCALR antibody clone 37 (antibody, human IgG1, lambda, V domains shown)
VH: QVQLVQSGAEVKKPGATVKISCKVSGYSFTDYFIHWVQQAPGKGLAWVGLVDPEDGETIYAEKFQGRVTITADTSTDTAYMELSSLRSEDTAVYYCATPGGILTDPDAFDIWGQGTMVTVSS
VL: QSALTQPASVSGSPGQSITISCTGTSSDVGGYNYVSWYQQHPGKAPKLMIYDVSNRPSGVSNRFSGSKSGNTASLTISGLQAEDEADYYCSSYTSSSTFYVFGTGTKVTVLG
notes: human IgG1
B12: in assay [1], the Kd is 9.88 nM, the koff was found to be 0.00212 s⁻¹ and the kon worked out at 215000 M⁻¹ s⁻¹.

B13: anti-mutCALR antibody clone 34 (antibody, human IgG1, lambda, V domains shown)
VH: QVQLVQSGAEVKKPGATVKISCKVSGYSFTDYFIHWVQQAPGKGLAWVGLVDPEDGETIYAEKFQGRVTITADTSTDTAYMELSSLRSEDTAVYYCATPGGILTDPDAFDIWGQGTMVTVSS
VL: QSALTQPASVSGSPGQSITISCTGTSSDVGGYNYVSWYQQHPGKAPKLMIYEVSNRPSGVSNRFSGSKSGNTASLTISGLQAEDEADYYCSSYTSSSTYVFGTGTKVTVLG
notes: human IgG1
B13: in assay [1], the Kd is 2.56 nM, the koff was 0.00581 s⁻¹ and the kon was found to be 2.27e+06 M⁻¹ s⁻¹.

B14: anti-mutCALR antibody clone 33 (antibody, human IgG1, lambda, V domains shown)
VH: QVQLVQSGAEVKKPGATVKISCKVSGYSFTDYFIHWVQQAPGKGLAWVGLVDPEDGETIYAEKFQGRVTITADTSTDTAYMELSSLRSEDTAVYYCATPGGILTDPDAFDIWGQGTMVTVSS
VL: QSALTQPRSVSGSPGQSVTISCAGTGSDVGGYNHVSWYQHHPGKAPKLMIYDVNKRPSGVPDRFSGSKSGNTASLTISGLQAEDEADYYCSSYIPSSTRWVFGGGTKLTVLG
notes: human IgG1
As for B14, in assay [1], the Kd was found to be 16.2 nM, the dissociation rate constant (koff) amounted to 0.0126 s⁻¹ and the kon amounted to 775000 M⁻¹ s⁻¹.

B15: anti-mutCALR antibody clone 35 (antibody, human IgG1, lambda, V domains shown)
VH: QVQLVQSGAEVKKPGATVKISCKVSGYSFTDYFIHWVQQAPGKGLAWVGLVDPEDGETIYAERFQGRVTITADTSTDTAYMELSSLRSEDTAVYYCATPGGILTDPDAFDIWGQGTMVTVSS
VL: QSALTQPASVSGSPGQSITISCTGTSSDVGGYNYVSWYQQHPGKAPKLMIYEVSNRPSGVSNRFSGSKSGNTASLTISGLQAEDEADYYCSSYTSSSTPYVFGTGTKVTVLG
notes: human IgG1
On to B15, for which, in assay [1], the Kd came to 2.82 nM, the koff worked out at 0.00599 s⁻¹ and the on-rate (kon) is 2.13e+06 M⁻¹ s⁻¹.

B16: anti-mutCALR antibody clone 32 (antibody, human IgG1, lambda, V domains shown)
VH: QVQLVQSGAEVKKPGATVKISCKVSGYSFTDYFIHWVQQAPGKGLAWVGLVDPEDGETIYAEKFQGRVTITADTSTDTAYMELSSLRSEDTAVYYCATPGGILTDPDAFDIWGQGTMVTVSS
VL: QSALTQPASVSGSPGQSITISCTGTSSDVGGYNYVSWYQQHPGKAPKLMIYEVSNRPSGVSNRFSGSKSGNTASLTISGLQAEDEADYYCSSYTSSSTPYVFGTGTKVTVLG
notes: human IgG1
Turning to B16, in assay [1], the Kd was determined as 5.63 nM, the koff amounted to 0.00768 s⁻¹ and the kon is 1.36e+06 M⁻¹ s⁻¹. Further, in assay [2], the Kd was found to be 1.71 nM, the dissociation rate constant (koff) came to 0.00314 s⁻¹ and the kon stood at 1.84e+06 M⁻¹ s⁻¹.
